Columns and labels:
NEPv (NEP G399V/G714K) = molecular target: T1, NEPv (NEP G399V/G714K) (Homo sapiens, UniProt P08473, G400V/G715K); experiment: Inhibition of Aβ1–40 cleavage activity, fluorescence polarisation; type: biochemical
T1 construct: DNA encoding amino acids 52–749 of human NEP variants was amplified by PCR; made in house; host or cells: CHO suspension cells (transient, secreted)
Procedure: (§1) The effect of inhibitors on NEP activity was determined using the above fluorescence polarisation assay to measure the rate of Aβ1–40 cleavage with a substrate concentration of 10 µM, an enzyme concentration of 20 nM and inhibitor concentrations in the range 2 nM to 100 µM.

wild-type NEP = molecular target: T2, wild-type NEP (Homo sapiens, UniProt P08473); experiment: as above; type: biochemical; details: enzyme wild-type NEP 20 nM; Aβ1–40 substrate 10 µM
T2 construct: DNA encoding amino acids 52–749 of human NEP variants was amplified by PCR; made in house; host or cells: CHO suspension cells (transient, secreted)
T2 sequence (P08473 53-750): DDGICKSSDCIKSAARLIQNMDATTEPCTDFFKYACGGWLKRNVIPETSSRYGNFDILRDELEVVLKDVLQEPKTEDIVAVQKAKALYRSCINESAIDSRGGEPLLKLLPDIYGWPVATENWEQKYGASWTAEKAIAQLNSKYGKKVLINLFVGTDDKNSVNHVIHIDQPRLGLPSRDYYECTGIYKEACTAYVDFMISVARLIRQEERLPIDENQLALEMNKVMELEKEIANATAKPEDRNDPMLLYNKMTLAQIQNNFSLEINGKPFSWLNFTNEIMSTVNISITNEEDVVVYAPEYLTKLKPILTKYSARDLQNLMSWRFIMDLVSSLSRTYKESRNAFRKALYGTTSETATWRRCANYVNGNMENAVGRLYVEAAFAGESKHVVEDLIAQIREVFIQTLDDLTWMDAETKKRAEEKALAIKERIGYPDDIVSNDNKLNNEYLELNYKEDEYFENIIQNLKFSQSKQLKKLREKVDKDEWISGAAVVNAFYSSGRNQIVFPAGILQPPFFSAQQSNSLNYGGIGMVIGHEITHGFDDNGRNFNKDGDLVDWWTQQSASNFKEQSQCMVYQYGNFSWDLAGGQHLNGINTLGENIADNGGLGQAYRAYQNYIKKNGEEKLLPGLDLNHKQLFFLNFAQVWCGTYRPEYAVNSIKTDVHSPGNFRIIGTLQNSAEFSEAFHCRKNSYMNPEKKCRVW
Procedure: as §1

NEP G399V = NEP G399V (Homo sapiens, UniProt P08473, G400V); experiment: biochemical
Sequence of NEP G399V (P08473 53-750 G400V): as the sequence (P08473 53-750) above, with G348V counted along it
Procedure: as §1

NEP G714K = NEP G714K (Homo sapiens, UniProt P08473, G715K); experiment: biochemical
Sequence of NEP G714K (P08473 53-750 G715K): as the sequence (P08473 53-750) above, with G663K counted along it
Procedure: as §1

ANP = experiment: Steady-state kinetics of peptide cleavage, fluorescence polarisation; type: biochemical; details: substrate ANP; 37°C, pH 7.4
Procedure: (§2) For detailed kinetic characterisation of peptide cleavage by NEP, a similar assay to that above was used with modifications based on a published method. Peptides were synthesised by Bachem using 9-fluorenylmethyloxycarbonyl solid-phase peptide synthesis and were labelled with a N-terminal 5(6)FAM via a ε-aminocaproic acid linker and a C-terminal biotin via a lysine linker (Table S1). Purified peptides were supplied as trifluoroacetate salts with a purity ≥95%. The assay was performed in a 96-well microtitre plate and contained 50 mM HEPES (pH 7.4), 100 mM NaCl, 0.05% (w/v) BSA (Buffer A), 1–200 µM peptide substrate and 1–500 nM NEP protein. Reactions were incubated at 37°C before being stopped at various time points between 2 and 360 min by transferring 5 µL aliquots to 245 µL Buffer A containing 2 mM 1,10-phenanethroline (Sigma) and 2 µM avidin (Invitrogen). For peptide substrates containing disulphide bonds, 1 mM tris(2-carboxyethyl)phosphine (Thermo Scientific) was added to the stop solution. The fluorescence polarisation of the resulting solution was measured on a Victor plate reader and the amount of substrate cleaved was determined with reference to substrate-only controls with and without avidin. Initial rates were obtained by linear regression of the linear regions of time courses. Enzyme velocity was plotted as a function of substrate concentration and the Michaelis-Menten equation was used to fit the data, giving the parameters kcat and KM.

Angiotensin = experiment: as above; type: biochemical; details: substrate Angiotensin; 37°C, pH 7.4
Procedure: as §2

Arg-vasopressin = experiment: as above; type: biochemical; details: substrate Arg-vasopressin; 37°C, pH 7.4
Procedure: as §2

Aβ1–40 [1] = experiment: as above; type: biochemical; details: substrate Aβ 1–40; 37°C, pH 7.4
Procedure: as §2

Bradykinin = experiment: as above; type: biochemical; details: substrate Bradykinin; 37°C, pH 7.4
Procedure: as §2

GLP-1 = experiment: as above; type: biochemical; details: substrate GLP-1; 37°C, pH 7.4
Procedure: as §2

GRP = experiment: as above; type: biochemical; details: substrate GRP; 37°C, pH 7.4
Procedure: as §2

Glucagon = experiment: as above; type: biochemical; details: substrate Glucagon; 37°C, pH 7.4
Procedure: as §2

Neurokinin A = experiment: as above; type: biochemical; details: substrate Neurokinin A; 37°C, pH 7.4
Procedure: as §2

Neurokinin B = experiment: as above; type: biochemical; details: substrate Neurokinin B; 37°C, pH 7.4
Procedure: as §2

Neurotensin = experiment: as above; type: biochemical; details: substrate Neurotensin; 37°C, pH 7.4
Procedure: as §2

Nociceptin = experiment: as above; type: biochemical; details: substrate Nociceptin; 37°C, pH 7.4
Procedure: as §2

Somatostatin 14 = experiment: as above; type: biochemical; details: substrate Somatostatin 14; 37°C, pH 7.4
Procedure: as §2

Substance P = experiment: as above; type: biochemical; details: substrate Substance P; 37°C, pH 7.4
Procedure: as §2

α-endorphin = experiment: as above; type: biochemical; details: substrate α-endorphin; 37°C, pH 7.4
Procedure: as §2

γ-endorphin = experiment: as above; type: biochemical; details: substrate γ-endorphin; 37°C, pH 7.4
Procedure: as §2

Endothelin-1 = experiment: Steady-state kinetics of endothelin-1 cleavage, stopped assay with RP-HPLC; type: biochemical; details: substrate Endothelin-1 (unlabelled); RP-HPLC, 10 min at 37°C
Procedure: Kinetic parameters for cleavage of endothelin-1 by NEP were determined using a stopped assay in which the amount of substrate cleaved was measured using reversed-phase HPLC (RP-HPLC). Endothelin-1 was incubated at 12.5–200 µM in the presence of wild type NEP or NEPv and reactions were stopped after 10 min at 37°C by the addition of an equal volume of 1∶1∶1 water:acetonitrile:TFA containing 2 mM tris(2-carboxyethyl)phosphine (Thermo Scientific). RP-HPLC spectra were recorded using an Agilent 1260 Infinity system. Injections of 20 µL were made for each sample and analytes were separated by elution on an Agilent Polaris C8-A stationary phase column (4.6×100 mm, 3 µm) at 1.5 mL min^−1 using a linear binary gradient of 10–90% acetonitrile in water with 0.1% (v/v) TFA over 15 minutes at 40°C. Signal intensity for intact endothelin-1 was monitored at 210 nm and relative peak area was determined by manual integration of the baseline. Kinetic parameters were derived from the activity data as described above.

Aβ1–40 [2] = experiment: Endpoint degradation assay with ELISA read-out; type: biochemical, human; details: 1 hour at room temperature; Aβ40 ELISA
Procedure: (§3) Supplementary file pone.0104001.s001.tif: Figure S1 Degradation of Aβ1–40 and Aβ1–42 by NEP wild-type and NEPv. Measurement of the degredation of Aβ1–40 (A) and Aβ1–42 (B) was performed by incubating peptide and either wild-type NEP (▪) or NEPv (Δ) for 1 hour at room temperature. The reaction was stopped by the addition of 1.10-phenanthroline to a final concentration of 10 µM. 50 µl (Aβ40 analysis) or 100 µl (Aβ42 analysis) of the reaction mix was transferred to an ELISA plate. Aβ40 and Aβ42 concentrations after degradation were determined using Invitrogen human Aβ40 ELISA kit (Invitrogen, California, US), and Innotest β-amyloid RUO (1–42) ELISA (Innogenetics, Gent, Belgium). […] (TIF) Click here for additional data file.

Aβ1–42 = molecular target: T3, Aβ1–42 (Homo sapiens, UniProt P05067); experiment: Endpoint degradation assay with ELISA read-out; type: biochemical; details: 1 hour at room temperature; Aβ42 ELISA
T3 construct: Aβ 1-42^a
T3 sequence (P05067 672-713): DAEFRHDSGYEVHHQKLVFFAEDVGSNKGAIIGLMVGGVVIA
Procedure: as §3

T1 sequence (P08473 53-750 G400V/G715K): as the sequence (P08473 53-750) above, with G348V, G663K counted along it

CC(C)C[C@H](NP(=O)(O)O[C@@H]1O[C@@H](C)[C@H](O)[C@@H](O)[C@H]1O)C(=O)N[C@@H](Cc1c[nH]c2ccccc12)C(=O)O [Phosphoramidon, phosphoramidon]
potency lower on NEPv than for wild-type NEP (NEPv (NEP G399V/G714K); NEPv versus wild-type NEP): > 2000 fold
IC50 (NEPv (NEP G399V/G714K); enzyme NEPv 20 nM, Aβ1–40 substrate 10 µM): 21000 nM
IC50 (wild-type NEP): < 10 nM
IC50 (NEP G399V): 610 nM
IC50 (NEP G714K): 100 nM

B1: wild-type NEP: soluble extracellular domain (amino acids 52–749) of wild type human NEP (neprilysin), tagged, recombinantly expressed (protein, UniProt P08473 52-749, looked up, fragment)
chain: YDDGICKSSDCIKSAARLIQNMDATTEPCTDFFKYACGGWLKRNVIPETSSRYGNFDILRDELEVVLKDVLQEPKTEDIVAVQKAKALYRSCINESAIDSRGGEPLLKLLPDIYGWPVATENWEQKYGASWTAEKAIAQLNSKYGKKVLINLFVGTDDKNSVNHVIHIDQPRLGLPSRDYYECTGIYKEACTAYVDFMISVARLIRQEERLPIDENQLALEMNKVMELEKEIANATAKPEDRNDPMLLYNKMTLAQIQNNFSLEINGKPFSWLNFTNEIMSTVNISITNEEDVVVYAPEYLTKLKPILTKYSARDLQNLMSWRFIMDLVSSLSRTYKESRNAFRKALYGTTSETATWRRCANYVNGNMENAVGRLYVEAAFAGESKHVVEDLIAQIREVFIQTLDDLTWMDAETKKRAEEKALAIKERIGYPDDIVSNDNKLNNEYLELNYKEDEYFENIIQNLKFSQSKQLKKLREKVDKDEWISGAAVVNAFYSSGRNQIVFPAGILQPPFFSAQQSNSLNYGGIGMVIGHEITHGFDDNGRNFNKDGDLVDWWTQQSASNFKEQSQCMVYQYGNFSWDLAGGQHLNGINTLGENIADNGGLGQAYRAYQNYIKKNGEEKLLPGLDLNHKQLFFLNFAQVWCGTYRPEYAVNSIKTDVHSPGNFRIIGTLQNSAEFSEAFHCRKNSYMNPEKKCRV
modifications: extracellular domain tag
notes: soluble extracellular domain (amino acids 52–749) of wild type human NEP (neprilysin), tagged, recombinantly expressed
Km (ANP): 8.4 ± 0.8 µM
kcat (ANP): 7.1 ± 0.2 s⁻¹
Km (Angiotensin): 8.6 ± 0.9 µM
kcat (Angiotensin): 8.2 ± 0.3 s⁻¹
Km (Arg-vasopressin): 6.2 ± 1 µM
kcat (Arg-vasopressin): 2.8 ± 0.2 s⁻¹
Km (Aβ1–40 [1]): 104 ± 20 µM
kcat (Aβ1–40 [1]): 0.83 ± 0.1 s⁻¹
Km (Bradykinin): 32 ± 5 µM
kcat (Bradykinin): 16 ± 1 s⁻¹
Km (GLP-1): 24 ± 4 µM
kcat (GLP-1): 3.3 ± 0.3 s⁻¹
Km (GRP): 150 ± 30 µM
kcat (GRP): 26 ± 4 s⁻¹
Km (Glucagon): 25 ± 5 µM
kcat (Glucagon): 4.5 ± 0.4 s⁻¹
Km (Neurokinin A): 9.3 ± 1 µM
kcat (Neurokinin A): 17 ± 0.7 s⁻¹
Km (Neurokinin B): 22 ± 2 µM
kcat (Neurokinin B): 20 ± 0.8 s⁻¹
Km (Neurotensin): 16 ± 2 µM
kcat (Neurotensin): 13 ± 0.6 s⁻¹
Km (Nociceptin): 20 ± 1 µM
kcat (Nociceptin): 11 ± 0.3 s⁻¹
Km (Somatostatin 14): 7.4 ± 0.9 µM
kcat (Somatostatin 14): 32 ± 1 s⁻¹
Km (Substance P): 16 ± 1 µM
kcat (Substance P): 18 ± 0.6 s⁻¹
Km (α-endorphin): 24 ± 0.5 µM
kcat (α-endorphin): 8.9 ± 0.08 s⁻¹
Km (γ-endorphin): 13 ± 1 µM
kcat (γ-endorphin): 4.8 ± 0.2 s⁻¹
Km (Endothelin-1): 53 ± 10 µM
kcat (Endothelin-1): 0.68 ± 0.06 s⁻¹
EC50 (Aβ1–40 [2]): 243 nM
EC50 (Aβ1–42): 144 nM

Reference: article PMC4121237, “Engineering Neprilysin Activity and Specificity to Create a Novel Therapeutic for Alzheimer’s Disease” (PLoS ONE, 2014)
